Consider six molecules from patent US20200010567A1 (NEURIMMUNE, published 2020).

A value given as a limit tells only on which side of the number the result lay.

In one test the target is T1, GP6: H-(GP)6HHHHHH-NH2.
T1 peptide: H-GPGPGPGPGPGPHHHHHH-NH2
The test can be described thus: indirect ELISA, His-tagged peptide coated at 50 ug/ml, antibody titrated. The procedure:
(§1) 96-well microplates (Corning Incorporated, Corning, USA) were coated with dipeptide repeat protein peptides at a concentration of 50 μg/ml in coating buffer (15 mM Na₂CO₃, 35 mM NaHCO₃, pH 9.42). Non-specific binding sites were blocked for 1 h at room temperature with PBS/0.1% Tween®-20 containing 2% BSA (Sigma-Aldrich, Buchs, Switzerland). Primary antibodies were diluted to the indicated concentrations and incubated 1 h at room temperature, followed by incubation with a donkey anti-human IgG Fcγ-specific antibody conjugated with HRP (Jackson ImmunoResearch Laboratories, Inc., West Grove, USA). Binding was determined by measurement of HRP activity in a standard colorimetric assay. EC₅₀ values were estimated by non-linear regression using GraphPad Prism software (San Diego, USA).
(§2) High affinity binding was detected for poly-GA DPRs harboring 10 or 20 (GA)-repeats, reflected in an EC₅₀ in the subnanomolar or low nanomolar range (FIGS. 7A, 7C-7I).

The next test addresses T2, (GP)15: H-C(GP)15-OH.
T2 construct: synthetic, not coupled to BSA; also called poly-GP DPR protein peptide
T2 peptide: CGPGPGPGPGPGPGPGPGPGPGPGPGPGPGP
In words: indirect ELISA, uncoupled peptide coated, antibody titrated [also D00014 FIG. 3G]. The procedure:
as §1, with “In brief, dipeptide repeat proteins were synthesized and purified by Schafer-N(Copenhagen, Denmark): (GA)₁₅: H-CHHHHHH(GA)₁₅-OH; (GP)₁₅: H-C(GP)₁₅-OH; (GR)₁₅: H-C(GR)₁₅-OH; (PA)₁₅: H-C(PA)₁₅-OH; (PR)₁₅: H—C(PR)₁₅-OH. DPR protein peptides were then conjugated via a bifunctional linker (SMCC) to bovine serum albumin (BSA). 96-well microplates” for “96-well microplates”, “coated with BSA-coupled or -uncoupled dipeptide repeat” for “coated with dipeptide repeat”, “concentration of either 5 μg/ml or 20 μg/ml in” for “concentration of 50 μg/ml in”
(In general: An ELISA detects its analyte on a solid surface through an enzyme-linked reagent.)

Another test has as its target T3, GR2: H-(GR)2HHHHHH-NH2.
T3 peptide: H-GRGRHHHHHH-NH2
The test can be described thus: indirect ELISA, His-tagged peptide coated at 50 ug/ml, antibody titrated [also D00026 FIG. 7L]. As for the experimental part: as §1, §2

A further test concerns the target T4, GR10: H-(GR)10HHHHHH-NH2 (C-terminal amide).
T4 peptide: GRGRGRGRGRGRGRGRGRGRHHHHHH
In words: indirect ELISA, His-tagged peptide coated at 50 ug/ml, antibody titrated. The procedure: as §1, §2

Test [1] addresses T5, BSA-coupled (PA)15 DPR protein peptide (bovine, UniProt P02769 25-607, conjugated via a bifunctional linker (SMCC) to bovine serum albumin).
T5 construct: also called BSA-(PA)15
The test can be described thus: indirect ELISA, BSA-coupled peptide coated, antibody titrated [also D00015 FIG. 3K]. As for the experimental part: as §1, with “In brief, dipeptide repeat proteins were synthesized and purified by Schafer-N(Copenhagen, Denmark): (GA)₁₅: H-CHHHHHH(GA)₁₅-OH; (GP)₁₅: H-C(GP)₁₅-OH; (GR)₁₅: H-C(GR)₁₅-OH; (PA)₁₅: H-C(PA)₁₅-OH; (PR)₁₅: H—C(PR)₁₅-OH. DPR protein peptides were then conjugated via a bifunctional linker (SMCC) to bovine serum albumin (BSA). 96-well microplates” for “96-well microplates”, “coated with BSA-coupled or -uncoupled dipeptide repeat” for “coated with dipeptide repeat”, “concentration of either 5 μg/ml or 20 μg/ml in” for “concentration of 50 μg/ml in”

In test [2] the target is T6, (GA)15: H-CHHHHHH(GA)15-OH.
T6 construct: synthetic, not coupled to BSA; also called poly-GA DPR protein peptide
T6 peptide: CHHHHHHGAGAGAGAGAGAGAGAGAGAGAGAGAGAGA
In words: indirect ELISA, uncoupled peptide coated, antibody titrated [also D00012 FIG. 3B]. The procedure: as §1, with “In brief, dipeptide repeat proteins were synthesized and purified by Schafer-N(Copenhagen, Denmark): (GA)₁₅: H-CHHHHHH(GA)₁₅-OH; (GP)₁₅: H-C(GP)₁₅-OH; (GR)₁₅: H-C(GR)₁₅-OH; (PA)₁₅: H-C(PA)₁₅-OH; (PR)₁₅: H—C(PR)₁₅-OH. DPR protein peptides were then conjugated via a bifunctional linker (SMCC) to bovine serum albumin (BSA). 96-well microplates” for “96-well microplates”, “coated with BSA-coupled or -uncoupled dipeptide repeat” for “coated with dipeptide repeat”, “concentration of either 5 μg/ml or 20 μg/ml in” for “concentration of 50 μg/ml in”

For test [3], the target named is T7, BSA-coupled (PR)15 DPR protein peptide (bovine, conjugated via a bifunctional linker (SMCC) to bovine serum albumin).
T7 construct: also called BSA-(PR)15
T7 sequence (P02769 25-607 limits assumed, chain 2 of 2, one chain of several): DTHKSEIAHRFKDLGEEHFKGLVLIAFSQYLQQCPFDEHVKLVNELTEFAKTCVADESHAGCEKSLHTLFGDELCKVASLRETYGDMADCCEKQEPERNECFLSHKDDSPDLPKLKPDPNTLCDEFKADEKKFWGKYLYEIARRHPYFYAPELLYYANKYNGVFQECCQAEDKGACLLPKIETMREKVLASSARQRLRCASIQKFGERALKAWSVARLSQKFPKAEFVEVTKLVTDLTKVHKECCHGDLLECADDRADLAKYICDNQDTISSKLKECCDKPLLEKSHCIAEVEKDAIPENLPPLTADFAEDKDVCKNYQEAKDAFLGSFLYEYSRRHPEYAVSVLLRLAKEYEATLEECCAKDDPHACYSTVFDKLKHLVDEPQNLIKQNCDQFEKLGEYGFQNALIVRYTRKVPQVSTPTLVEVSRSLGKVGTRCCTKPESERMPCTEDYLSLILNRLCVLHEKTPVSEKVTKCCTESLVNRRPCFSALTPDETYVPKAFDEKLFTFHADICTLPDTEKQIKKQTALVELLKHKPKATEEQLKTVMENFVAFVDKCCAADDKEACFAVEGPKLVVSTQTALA
The test can be described thus: indirect ELISA, BSA-coupled peptide coated, antibody titrated [also D00013 FIG. 3F]. As for the experimental part: as §1, with “In brief, dipeptide repeat proteins were synthesized and purified by Schafer-N(Copenhagen, Denmark): (GA)₁₅: H-CHHHHHH(GA)₁₅-OH; (GP)₁₅: H-C(GP)₁₅-OH; (GR)₁₅: H-C(GR)₁₅-OH; (PA)₁₅: H-C(PA)₁₅-OH; (PR)₁₅: H—C(PR)₁₅-OH. DPR protein peptides were then conjugated via a bifunctional linker (SMCC) to bovine serum albumin (BSA). 96-well microplates” for “96-well microplates”, “coated with BSA-coupled or -uncoupled dipeptide repeat” for “coated with dipeptide repeat”, “concentration of either 5 μg/ml or 20 μg/ml in” for “concentration of 50 μg/ml in”

The next test concerns the target T8, (PR)15: H-C(PR)15-OH.
T8 construct: synthetic, not coupled to BSA; also called poly-PR DPR protein peptide
T8 peptide: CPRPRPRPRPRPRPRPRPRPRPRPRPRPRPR
In words: indirect ELISA, uncoupled peptide coated, antibody titrated [also D00013 FIG. 3F]. As for the experimental part: as §1, with “In brief, dipeptide repeat proteins were synthesized and purified by Schafer-N(Copenhagen, Denmark): (GA)₁₅: H-CHHHHHH(GA)₁₅-OH; (GP)₁₅: H-C(GP)₁₅-OH; (GR)₁₅: H-C(GR)₁₅-OH; (PA)₁₅: H-C(PA)₁₅-OH; (PR)₁₅: H—C(PR)₁₅-OH. DPR protein peptides were then conjugated via a bifunctional linker (SMCC) to bovine serum albumin (BSA). 96-well microplates” for “96-well microplates”, “coated with BSA-coupled or -uncoupled dipeptide repeat” for “coated with dipeptide repeat”, “concentration of either 5 μg/ml or 20 μg/ml in” for “concentration of 50 μg/ml in”

For the next test, the target named is T9, PR5: H-(PR)5HHHHHH-NH2.
T9 peptide: H-PRPRPRPRPRHHHHHH-NH2
The test can be described thus: indirect ELISA, His-tagged peptide coated at 50 ug/ml, antibody titrated [also D00027 FIG. 7O]. The procedure: as §1, §2

In a further test the target is T10, PR4: H-(PR)4HHHHHH-NH2.
T10 peptide: H-PRPRPRPRHHHHHH-NH2
The test is described as above. The procedure:
as §1, §2

For the next test, the target named is T11, PR3: H-(PR)3HHHHHH-NH2.
T11 peptide: H-PRPRPRHHHHHH-NH2
The test is described as above. As for the experimental part: as §1, §2

The target in another test is T12, PR2: H-(PR)2HHHHHH-NH2.
T12 peptide: H-PRPRHHHHHH-NH2
Described as above. The procedure: as §1, §2

T5 sequence (peptide, as listed by the source limits assumed, chain 1 of 2): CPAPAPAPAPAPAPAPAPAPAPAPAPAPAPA
T5 sequence (P02769 25-607 limits assumed, chain 2 of 2): as the sequence (P02769 25-607 limits assumed, chain 2 of 2, one chain of several) above

B1: NI-308.46E9 (antibody, V domains shown)
VH: QVQLQESGPGLVKPSETLSLTCTVSGASISGSTYYWGWIRQPPGKGLEYIGRIYYSGSTYYNPSLKSRATISVDTSKNQLSLTLSSVTAADTAVYYCVRPFYAGSGNSPFDYWGQGTLVTVSS
VL: CEIVLTQSPATVSVSPGERATLSCRASQSVSTNLAWYQQKPGQPPRLLIYGASTRATGIPARFSGSGSGAEFTLTISSLQSEDFVVYYCQQYNNWPPAFGGGTKVEIK
notes: Recombinant complete human IgG1, kappa
With B1, the EC50 (usually the concentration at which the effect is half-maximal) in the test with GP6: H-(GP)6HHHHHH-NH2 is greater than 200 nM.

B2: NI-308.5G2 (antibody, V domains shown)
VH: EVQLVQSGADLRNPGASVTVSCTASGYHFADNAINWLRQAPGQRLEWMGWINIYSGNTKYSQNFQGRVTFTRNTSASTAFMHLRSLRSEDTAVYFCARDPDSSGYYLPYFDYWGQGTLVTVSS
VL: DIQLTQSPDSLTLSLGERATINCKSSQSVFYNSNNKNYLAWYQQKPGQPPKLLMYWASTRESGVTDRFSGSGSGTDFTLTITNLQAEDVAVYYCQQFYSSPLTFGGGTKVEIK
notes: as for B1
In turn, B2 displayed a concentration giving a half-maximal response (EC50) with (GP)15: H-C(GP)15-OH of 0.4 nM.

B3: NI-308.6B11 (antibody, V domains shown)
VH: EVQLVQSGAEVKRPGASVKVSCKVSGYTLTELSMHWVRQAPGKGLEWMGGFDPEDGETVYAQKFQGRVTMTEDTSTDTAYMELSSLRSEDTALYHCATYGSSWHWNEGNEGSYYFDYWGQGTLVTVSS
VL: CDIQMTQSPSSLSASVGDRVTITCQASQDISIYLNWYQQKPGKAPKLLIYDASNLETGVPSRFSGSGSGTDFTFTISGLQPEDVARYYCQQYDDLPITFGQGTRLEIK
notes: as for B1
Turning to B3, in the test with GR2: H-(GR)2HHHHHH-NH2, the binding result was “no binding (tested: about 4x10^5 pM (last point))”. In addition, the EC50 in the test with GR10: H-(GR)10HHHHHH-NH2 worked out at 1.28 nM.

B4: NI-308.4M1 (antibody, V domains shown)
VH: EVQLVETGGGVVQPGGSLRLSCEASGFTIGTYAMHWVRQFPGKGLDWVAVISFDGTTEYYTDAVKGRFTISRDNAKNTLYLQMNYLRGDDTAIYFCARDFTSSGETGSWTQVPDLWGQGTLVTVSS
VL: CEIVMTQSPATLSLSPGERATLSCRASQSVTKYLAWYQQKPGQAPRLLIYDVSYRAAGTPARFSGSGSGTDFTLTISSLEPEDFAVYYCHQRSSWPPVTFGGGTKVEIK
notes: as for B1
Take B4: the concentration for a half-maximal effect (EC50) in test [1] came out at 0.14 nM. In other words, the sub-nanomolar range.

B5: NI-308.18F7 (antibody, V domains shown)
VH: QVQLQESGPGLVKPSETLSVTCTVSGGSINDYYWNWIRQPAGKGLEWIGRIYASGTINYNPSLQSRVTMSIDTSKNQFSLDLISVSAADTAVYYCARWGQVVGDYYYGMDVWGQGTTVTVSS
VL: EIVLTQSPLSLSVTPGEPASISCKSSQSLQHTNGYNYLDWYLLKPGQSPQLLIFLTSNRASGVPDRFSGSGSGTNFTLKISRVEAEDVGVYYCMEGIQLWTFGQGTKLEIK
notes: as for B1
In turn, B5 gave an EC50 in test [2] of 0.34 nM.

B6: NI-308.24E11 (antibody, V domains shown)
VH: QVQLQESGPGLVKPSETLSLTCTVSTTSLRSYFWSWIRQPPGKGLEWIGYVYYSGSTIYNPSLKNRVTISIDTSKNQFSLNLRSVTAADTAMYFCARGVPAETDARDFPPYYFDHWGQGTLVTVSS
VL: CDIQLTQSPSSLSASVGNRITFTCQASQDIRYYLNWYQQKPGKAPKLLIYDVSNLDTGVPPRFSGSGSGTNFTFTISSLQPEDIAVYYCQQYEGLPVTFGGGTKVEIK
notes: as for B1
On to B6, for which the 50% effective concentration (EC50) in [3] is greater than 200 nM; with (PR)15: H-C(PR)15-OH it was 11.3 nM. Further, the binding result in the test with PR5: H-(PR)5HHHHHH-NH2, with PR4: H-(PR)4HHHHHH-NH2, with PR3: H-(PR)3HHHHHH-NH2 and with PR2: H-(PR)2HHHHHH-NH2 was “no binding (tested: about 4x10^5 pM (last point))” in each case.
